Where a chain is given by its changes, count along the chain named. Several values for one entry are separate records, joined by “and”; a condition that tells them apart may be missing. Equal entries are not always repeated.
T1: extracellular domain of TNFR-1 (Example 4) (UniProt P19438 30-211, limits assumed)
T1 construct: extracellular domain; also called TNFR1 extracellular domain
T1 sequence (looked up): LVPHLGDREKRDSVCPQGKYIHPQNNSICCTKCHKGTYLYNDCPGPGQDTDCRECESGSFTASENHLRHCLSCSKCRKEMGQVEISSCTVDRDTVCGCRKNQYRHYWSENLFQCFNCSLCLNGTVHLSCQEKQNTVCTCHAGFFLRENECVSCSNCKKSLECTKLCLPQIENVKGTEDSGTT

T2: human soluble TNFR1 (human, UniProt P19438 30-211)
T2 construct: also called hTNFR1; hTNFR-1
T2 sequence: T1 sequence (looked up)

T3: TNFR1 on the cells of the TNF-dependent bioassays (THP1 cells in Examples 4 and 6) (human, UniProt P19438 30-455)
T3 sequence: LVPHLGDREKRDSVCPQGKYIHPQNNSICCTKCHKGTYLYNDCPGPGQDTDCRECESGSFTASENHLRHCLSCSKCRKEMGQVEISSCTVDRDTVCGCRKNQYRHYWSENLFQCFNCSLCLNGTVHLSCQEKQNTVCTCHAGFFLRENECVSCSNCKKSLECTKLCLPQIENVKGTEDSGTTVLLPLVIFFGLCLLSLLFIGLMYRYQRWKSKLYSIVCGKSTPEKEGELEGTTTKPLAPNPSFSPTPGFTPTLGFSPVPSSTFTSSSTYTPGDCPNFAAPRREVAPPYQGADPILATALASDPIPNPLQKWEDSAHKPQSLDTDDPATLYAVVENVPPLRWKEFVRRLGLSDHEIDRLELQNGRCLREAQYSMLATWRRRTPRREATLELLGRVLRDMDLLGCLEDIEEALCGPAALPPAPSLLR

T4: human soluble TNFR2 (human, UniProt P20333 23-257)
T4 construct: also called hTNFR2; TNF receptor type 2
T4 sequence: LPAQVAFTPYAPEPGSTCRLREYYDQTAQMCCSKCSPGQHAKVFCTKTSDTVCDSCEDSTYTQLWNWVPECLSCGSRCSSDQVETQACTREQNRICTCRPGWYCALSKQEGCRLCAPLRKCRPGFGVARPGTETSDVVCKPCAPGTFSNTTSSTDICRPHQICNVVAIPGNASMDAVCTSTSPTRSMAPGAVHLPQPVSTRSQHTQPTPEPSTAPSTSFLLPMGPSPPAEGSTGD

T5: Human TNFR1/CD120a protein, His & Avi tag (human, UniProt P19438 30-211)
T5 construct: Captured on HIS1K or streptavidin biosensors; also called TNFR1-His-avi tag protein; immobilized soluble human TNFR1; not shown: His tag and Avi tag
T5 sequence: T1 sequence (looked up)

B1: Vhh-4 (VHH)
VHH: EVQLLESGGGLVQPGGSLRLSCAASGFTFAHETMVWVRQAPGKGLEWVSHIPPDGQDPFYADSVKGRFTISRDNSKNTLYLQMNSLRAEDTAVYHCALLPKRGPWFDYWGQGTLVTVSS
B2: EN-1000-206 (VHH)
VHH: B1 VHH
B3: Vhh-2 (VHH, not shown: small tags and cut ends)
VHH: EVQLLESGGGLVQPGGSLRLSCAASGFTFSQYRMHWVRQAPGKSLEWVSSIDTRGSSTYYADPVKGRFTISRDNSKNTLYLQMNSLRAEDTAVYYCAKAVTMFSPFFDYWGQGTLV
B4: EN-1206-Fc-BV (Fc fusion)
chain: EVQLLESGGGLVQPGGSLRLSCAASGFTFAHETMVWVRQAPGKGLEWVSHIPPDGQDPFYADSVKGRFTISRDNSKNTLYLQMNSLRAEDTAVYHCALLPKRGPWFDYWGQGTLVTVSSDKTHTCPPCPAPEAAGGPSVFLFPPKPKDTLYITREPEVTCVVVDVSHEDPEVKFNWYVDGVEVHNAKTKPREEQYNSTYRVVSVLTVLHQDWLNGKEYKCKVSNKALGAPIEKTISKAKGQPREPQVYTLPPSRDELTKNQVSLTCLVKGFYPSDIAVEWESNGQPENNYKTTPPVLDSDGSFFLYSKLTVDKSRWQQGNVFSCSVMHEALHNHYTQKSLSLSPGK
notes: Homodimeric, bivalent; In some paragraphs 'EN1206' also means the HSA fusion or the dAb itself; also called EN1206-BV; EN1206 bivalent
B5: EN-1206-Fc-MV (Fc fusion)
chain 1: B4 chain with T265W
chain 2: DKTHTCPPCPAPEAAGGPSVFLFPPKPKDTLYITREPEVTCVVVDVSHEDPEVKFNWYVDGVEVHNAKTKPREEQYNSTYRVVSVLTVLHQDWLNGKEYKCKVSNKALGAPIEKTISKAKGQPREPQVYTLPPSRDELTKNQVSLSCAVKGFYPSDIAVEWESNGQPENNYKTTPPVLDSDGSFFLVSKLTVDKSRWQQGNVFSCSVMHEALHNHYTQKSLSLSPGK
notes: One-armed (monovalent) knob-into-hole heterodimer; the leader is cleaved on expression; also called EN1206-MV; EN1206-mv

How the values were obtained:
[1] = target: T1, extracellular domain of TNFR-1 (Example …); test: SPR (Biacore method)
human soluble TNFR1 [2] = target: T2, human soluble TNFR1; test: SPR (format not described)
[3] = target: T3, TNFR1 on the cells of the TNF-dependent …; test: cell-based or functional assay
[4] = target: T1, extracellular domain of TNFR-1 (Example …); test: competition assay, Vhh inhibition of TNF-α binding to TNFR1 extracellular domain; competitor TNF-α
Description: Competition assays of Vhh inhibition of TNF-α binding to TNFR1 extracellular domain also were performed as described in Richter et al. (2019).

[5] = target: T3, TNFR1 on the cells of the TNF-dependent …; test: cell-based or functional assay; remark: listed apart in the source
human soluble TNFR2 [6] = target: T4, human soluble TNFR2; test: SPR; VHH-Fc captured by anti-human IgG (Fc) antibody on CM5 sensor chip, TNFR2 as analyte
human soluble TNFR1 [7] = target: T2, human soluble TNFR1; test: SPR; VHH-Fc captured by anti-human IgG (Fc) antibody on CM5 sensor chip, human soluble TNFR1 as analyte
Source text: CM5 sensor chip (Cytiva #BR100530) was coated with an anti-human IgG (Fc) antibody (Cytiva #29234600) to capture the EN1206-BV and EN1208-BV. The human soluble TNFR1 was used as analyte for binding flow.

human soluble TNFR1 [8] = target: T2, human soluble TNFR1; test: SPR; VHH-Fc captured on Series S Protein A sensor chip, human soluble TNFR1 as analyte (0.781-100 nM), 1:1 binding fit
Source text: (§1) Series S Sensor Chip Protein A (Cytiva #29127556) was used to immobilize the Fc portion of the VHH/Fc proteins. The human soluble TNFR1 and TNFR2 are used for the SPR binding flow.

human soluble TNFR2 [9] = target: T4, human soluble TNFR2; test: SPR; VHH-Fc captured on Series S Protein A sensor chip, human soluble TNFR2 as analyte
Source text: as §1

[10] = target: T5, Human TNFR1/CD120a protein, His & Avi …; test: BLI, Octet RED96; TNFR1-His-Avi immobilised on anti-penta-His (HIS1K) biosensor, EN1206-mv 0.412-100 nM
Description: An Octet instrument RED96 was used for the assay. Octat anti-penta His biosensor (HIS1K) and Octet Streptavidin (SA) biosensor were used to immobilize the TNFR1-His-avi tag protein. […] Octet RED96 was used to measure the binding affinity of EN1206-mv and EN1208-bv. […] A dose-dependent binding of EN1208-bv to the immobilized TNFR1 on SA chip was detected within the concentration range of 3.7 nm to 300 nM (FIG. 11B).
The experiments started with the determination of the binding specificity and affinity of EN1206 and EN1208 to the immobilized human soluble TNFR1. A concentration-dependent binding of EN1206 and EN1208 to the TNFR1 was observed, respectively (Table 15, FIGS. 11A-11B). Due to a lack of detectable dissociation of EN1208-BV after its binding to the immobilized TNFR1 within the dissociation assay time frame (~5 min), the on-rate (ka) and off-rate (kd) could not be calculated. Thus, an affinity (KD) for EN1208 was estimated (Table 15).

Binder | Kd [1] [nM] | TNF Dependent Bioassay (IC50): VCAM [3] [nM] | relative gene expression of IL8/CXCL8 (qPCR, THP1 cells, TNF 100 ng/ml), 1 nM inhibitor, against baseline [5] [fold] | fold improvement over Etanercept in inhibition of IL-8 expression, TNF-stimulated THP1 cells (qPCR) [5] [fold] | fold improvement over Etanercept in inhibition of TNF expression, TNF-stimulated THP1 cells (qPCR) [5] [fold] | relative potency against 206dAb, suppression of TNF-induced expression of IL8/CXCL8 in THP1 cells, 1 nM [5] [fold] | relative potency against 206dAb, suppression of TNF-induced expression of TNF in THP1 cells, 1 nM [5] [fold] | Kd (human soluble TNFR1 [8]) [nM] | other results
B1 | 0.00066 | 0.3 | – | – | – | – | – | – | Kd (human soluble TNFR1 [2]): 0.407 nM and 0.3 nM to 0.5 nM (2×); IC50 [4]: ~1 nM
B2 | – | – | 8 | – | – | – | – | – | –
B3 | 1000 | 3 | – | – | – | – | – | – | –
B4 | – | – | 1.75 | 5.9 | 15 | 7 | 6.5 | 0.185 | binding result (human soluble TNFR2 [6]): no binding; Kd (human soluble TNFR1 [7]): 1.49 nM
B5 | – | – | 1.75 | 10.6 | 6.8 | 9.3 | 9 | 0.388 | binding result (human soluble TNFR2 [9]): no binding; Kd [10]: 0.314 nM; koff [10]: 0.000284 s⁻¹; kon [10]: 903000 M⁻¹ s⁻¹
